# The supplement of paper PMC6755084
# System: F1*sub RNA substrate (template-directed ligation)
# Assay: fraction ligated after 30 min (ligated reads / total reads); higher = more ligase activity; sequences stand for … in GAGACCGCAACTGAAAAGTTGT…AGTTCTGCACGTAGAAGCAAAAGGC
# Details: 42 °C
# Outline: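 Oligo-pool templates underwent PCR amplification, T7 transcription and gel purification to yield ribozyme variants. Gel-separated ligated and unligated bands were converted to complementary DNA with barcoded primers and sequenced on a MiSeq, keeping core bases of quality ≥20. The ratio of ligated reads to total reads gave the fraction ligated for every variant.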
row,Sequence,fraction ligated
1,TATCACTTTCGTAAGACACTTGGATGGGTTG [3d1567],0.773
2,TATCACTTTCGTAAGACACTTGGATGGTTGA [3d1565],0.134
3,TATCACTTTCGTAAGACACTTGGTGGGTTGA [3d1563],0.171
4,TATCACTTTCGTAAGACACTTTATGGGTTGA [3d1568],0.0429
5,TATCACTTTCGTAAGACACTTTGAGGGTTGA [3d1570],0.0593
6,TATCACTTTCGTAAGACACTTTGATGGGTTA [3d1572],0.0837
7,TATCACTTTCGTAAGACACTTTGATGGGTTG [3d1573],0.731
8,TATCACTTTCGTAAGACACTTTGATGGTTGA [3d1571],0.0696
9,TATCACTTTCGTAAGACACTTTGGAGGGTTA [3d1579],0.04
10,TATCACTTTCGTAAGACACTTTGGAGGGTTG [3d1580],0.0276
11,TATCACTTTCGTAAGACACTTTGGAGGTTGA [3d1578],0.0266
12,TATCACTTTCGTAAGACACTTTGGATGGGTT [3d1583],0.22
13,TATCACTTTCGTAAGACACTTTGGATGGGTTA [2d161],0.751
14,TATCACTTTCGTAAGACACTTTGGATGGGTTG [2d162],0.777
15,TATCACTTTCGTAAGACACTTTGGATGGGTTGA [1d8],0.815
16,TATCACTTTCGTAAGACACTTTGGATGGTTA [3d1581],0.0764
17,TATCACTTTCGTAAGACACTTTGGATGGTTG [3d1582],0.0551
18,TATCACTTTCGTAAGACACTTTGGATGGTTGA [2d160],0.114
19,TATCACTTTCGTAAGACACTTTGGGGGTTGA [3d1574],0.0345

row,Sequence,fraction ligated
1,TATCACTTTCGTAAGACACTTTGGTGGGTTA [3d1576],0.0309
2,TATCACTTTCGTAAGACACTTTGGTGGGTTG [3d1577],0.0247
3,TATCACTTTCGTAAGACACTTTGGTGGTTGA [3d1575],0.025
4,TATCACTTTCGTAAGACACTTTGTGGGTTGA [3d1569],0.0262
5,TATCACTTTCGTAAGACATTGGATGGGTTGA [3d1554],0.791
6,TATCACTTTCGTAAGACATTTGATGGGTTGA [3d1555],0.768
7,TATCACTTTCGTAAGACATTTGGAGGGTTGA [3d1557],0.0972
8,TATCACTTTCGTAAGACATTTGGATGGGTTA [3d1559],0.778
9,TATCACTTTCGTAAGACATTTGGATGGGTTG [3d1560],0.811
10,TATCACTTTCGTAAGACATTTGGATGGTTGA [3d1558],0.286
11,TATCACTTTCGTAAGACATTTGGTGGGTTGA [3d1556],0.284
12,TATCACTTTCGTAAGACCTTGGATGGGTTGA [3d1547],0.766
13,TATCACTTTCGTAAGACCTTTGATGGGTTGA [3d1548],0.786
14,TATCACTTTCGTAAGACCTTTGGAGGGTTGA [3d1550],0.0285
15,TATCACTTTCGTAAGACCTTTGGATGGGTTA [3d1552],0.623
16,TATCACTTTCGTAAGACCTTTGGATGGGTTG [3d1553],0.75
17,TATCACTTTCGTAAGACCTTTGGATGGTTGA [3d1551],0.0784
18,TATCACTTTCGTAAGACCTTTGGTGGGTTGA [3d1549],0.104
19,TATCACTTTCGTAAGACTTTGGATGGGTTGA [3d1529],0.823

row,Sequence,fraction ligated
1,TATCACTTTCGTAAGCACTTGGATGGGTTGA [3d1532],0.772
2,TATCACTTTCGTAAGCACTTTGATGGGTTGA [3d1533],0.784
3,TATCACTTTCGTAAGCACTTTGGAGGGTTGA [3d1535],0.03
4,TATCACTTTCGTAAGCACTTTGGATGGGTTA [3d1537],0.727
5,TATCACTTTCGTAAGCACTTTGGATGGGTTG [3d1538],0.764
6,TATCACTTTCGTAAGCACTTTGGATGGTTGA [3d1536],0.0345
7,TATCACTTTCGTAAGCACTTTGGTGGGTTGA [3d1534],0.0496
8,TATCACTTTCGTAAGCATTTGGATGGGTTGA [3d1531],0.791
9,TATCACTTTCGTAAGCCTTTGGATGGGTTGA [3d1530],0.774
10,TATCACTTTCGTAGAACTTTGGATGGGTTGA [3d1509],0.875
11,TATCACTTTCGTAGACACTTGGATGGGTTGA [3d1512],0.752
12,TATCACTTTCGTAGACACTTTGATGGGTTGA [3d1513],0.783
13,TATCACTTTCGTAGACACTTTGGAGGGTTGA [3d1515],0.0412
14,TATCACTTTCGTAGACACTTTGGATGGGTTA [3d1517],0.631
15,TATCACTTTCGTAGACACTTTGGATGGGTTG [3d1518],0.786
16,TATCACTTTCGTAGACACTTTGGATGGGTTGA [2d150],0.802
17,TATCACTTTCGTAGACACTTTGGATGGTTGA [3d1516],0.0829
18,TATCACTTTCGTAGACACTTTGGTGGGTTGA [3d1514],0.0546
